Experimental data from the nanobody polyreactivity screen of Harvey et al. (2022).

test: yeast display, Sf9 membrane polyspecificity reagent, FACS + sequencing; frameworks hold sequencing errors
Procedure, shortened: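 Genes from sorted yeast were amplified by colony PCR, read by MiSeq 2 × 250 sequencing and filtered on CDR length. These cells carried a synthetic nanobody library in Saccharomyces cerevisiae BJ5465 and were sorted by FACS into low and high (top ~1%) gates on anti-HA and streptavidin fluorescence. Polyreactivity is labelled according to the gate of origin.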

Row | Sequence | polyreactivity (PSR sort gate)
1 | QVQLVESRGGLVQAGGSLRLSCAPSGIIFVRYAMGWYRQAPGKETELVAAISSSGGSTYYADSVKGRFTISRDNAKKTVYLQMNSLKPEDTAVYYCNARHRQWARGYWGQGTQVTVSS | high polyreactivity
2 | QVQLVESRGGLVQAGGSLRLSCASSGSIFFSNAMGWYRQAPGKERELVAAISKSGGSTYYADSVKGRFTISRDNAKNTVYLQMNSLKPEDTAVYYCAAERTFLYWAYDYWGQGTQVTVSS | high polyreactivity
3 | QVQLVESRGGLVQAGGSLRLSCASSGSTFVPNAMGWYRQAPGNERELDAAITFSGGTTYYADSVKGRFTISRDNAKNTVYFQMNSLKPEDTAVYDCAADYFSNLWWSGHAWRYYYWGQGTQVTVSS | low polyreactivity
4 | QVQLVESRGGLVQAGGSLRLSCATSGRIFAKYAMGWYRQAPGKESELVAAITTTGRTYYADSVKGRFTISRDNAKNTVYLQMNSLKPEDTAVYYCAVGYHAPKVSTSDARYDYWGQGTQVTVSS | low polyreactivity
5 | QVQLVESRGGLVQAGGSLRLSCDASGIIFVKYAMGWYRQAPGKERELVAAITSGGSTYYADSVKVRFTISRDNAKNTVYLQMNSLKPEDTAVYYCNADSWFLYYFTINGYWGQGTQVTVSS | high polyreactivity
6 | QVQLVESRGGLVQAGGSLRLSFAASGSIFTPYTMGWDRPAPGKERELVAAITGSAGSTYYADSVKGRFTISRDNAKNTVYLQMNSLKPEDTAVYYCAAAVWGVYQWYYYWGQGTQVTVSS | high polyreactivity
7 | QVQLVESRGGLVQAGGSLRLSFPASGFTQEFYAMGWYRQAPGKERELVASISSGGRTNYADSVKGRFTISRDNAKYTVYLQMNSLKPEDTAVYYFAAEYRSWGRYRYRFNYWGQGTQVTVSS | high polyreactivity
8 | QVQLVESRGGLVQAGGSLRLSSAASGSTYGVNPMGWYRQAPGKERELVAAISVSGGRTYYADSVKGRFTISRDNAKNTVDLQMNSLKPEDTAVYYCNADGLYAYVWYDYWGQGTQVSVSS | low polyreactivity
9 | QVQLVESRGGLVQAGGSLRLSYAASGITFRKYAIGWYRQAPGKESELVAAISWSGGSTYYADSVKGGFTISRDNAMNTVYLQMNSMKPEDTAVYYCAAPHWSPYDYWGQGTQVTVSS | high polyreactivity
10 | QVQLVESRGGLVQARGSLRLSCAASGSTFVYYALGWYRTAPGTERELVAAITQRGGNTYYADSVKGRFTISRDNAKNTVYLQMNSLKPVDTAVYYCATKSYSQYFKFYYWGQGTQVTVSS | high polyreactivity
11 | QVQLVESRGGLVQEVGSLRLSCAASGRIFYRYYMGWYRQAPGKERELVASITRSGITHYADSVKGRFTISRDNATNTVYLQMNSLKPEDTAVYYCAVDLLRRGFPTVVTTYDYWGQGTQVTVSS | high polyreactivity
12 | QVQLVESRGGLVQSGGSLRLSCAASGSIFEIYHMGRYRQAPGNERELVASIRTSGGSTYYADSVKGRFTISRDNAKNTVYLQMNSLKPEDTAVYYCAAVGRSYYGHDYWGQGTQVTVSS | low polyreactivity
13 | QVQLVESRVGLVQAGGSLRLSCAASGRIFHYYAMGWYRQAPGKERELVAAINASGTSTYYADSVKGRFTISRDNAKNTVYLQMNSLKPEDTAVYYCAAQPYYRGGSYSYTRNSKLIYWGQGTQVTVSS | high polyreactivity
14 | QVQLVESRWRFVQAGGSLRLSCAASGSIFADYAMGWYRQAPGKERELVAAITFSGGSTYYADSVKGRFTISRDNAKNTVYLQMNSLKPEDTAVYYCASRWRYRYYSWGQGTQVTVSS | high polyreactivity
15 | QVQLVESSGGLVQAGGSLSLICAASGIIFYGYAMGWYRQAPGKERELVASIRSGSNTYYADSVKGRFTISRDNAKNTVYLQMNSLKPEDTAFYSCAARVVPATFRFIRYPHPYYYWGQGTQVTVSS | low polyreactivity
16 | QVQLVESVGALVQAGGSLRLSCAASGSIFIPYAMGWYRQAPGKEWEFVATITFGAASTYYADSVKGRFTISRDNAKNTVYLQMNSLKPEDTAVYYCNAEGYVYPYYREGDYWGQGTQVTVSS | low polyreactivity
17 | QVQLVESVGCLVQAGGSLRLSCAASGFIFGSYTMGWYRPAPGKESELVAAISSSGGNTYYADSVKGRFTISRDHAKNTVYLQMNSLKPEDTAVYYCAVDYIYDDAYNYWGQGTQVTVSS | high polyreactivity
18 | QVQLVESVGCLVQAGGSLRLSCAASGRIFTSNAMGWYRQAPGKERELVAAITRRGGTTYYADSVKGRFTISRDNSKNTVYFQMNSLNPEDTAVYYCATIITVASWYDYWGQGTQVTVSS | low polyreactivity
19 | QVQLVESVGGFVQAGGSLRLSCAASGFTFRIYAMGLYRKATVKERELVAGITWSVGSTYYADSVKGRFTISRDNAKNTVYLQMNSLKPEETAVYYCAVRRNQHVVQLYYWGQGTQGTVSS | low polyreactivity
20 | QVQLVESVGGFVQAGGSLRLSGAASGRTFNFNTMGWSRQAPGKERELVASITSGGSTNYADSVKVRFTISRDNAKNTVYLQMNILKPEDPAVYYCAVTVSGPYAYDYWGQGTQVTVSS | low polyreactivity
21 | QVQLVESVGGFVQAGGSLRLSSAASGFIFRSYAMGSYRQAPGKERELVAVISRRGVNTHYADSVKGRFTISRDYAKYTVYLQMNSLKPEDTAVYDCAKGLTALGDYWGQGSQVTVSS | high polyreactivity
22 | QVQLVESVGGFVQARGSLRLSCAASGFTFSYNAMRWYSQAPGKERELVATIRSSGGSTNYADSVKGRFTISRDNAKNTVYVQMNSLKPEDTAVYYCAADFSYYSTYDYWGLGTQVTVSS | low polyreactivity

Row | Sequence | polyreactivity (PSR sort gate)
23 | QVQLVESVGGIVQAGGSLRLSCAASGRIFGTNTMGWYRQAPGKERELVAGISSSGDSTYYADSVKGRFTISRDNAKNTVYLQMNSLKPEDTAVYYCNVYDYPTYDYWGQGTQVTVSS | low polyreactivity
24 | QVQLVESVGGLLQAGGSLRLSCAASGSIFFVYTMGWYRQAPGKERELFATITDSDGGTYYADSVKGRFTISRDNAKNTVYVQMNSLKPEDTAVYYCAAEVEVYFAIYEYWGQGTQVTVSS | low polyreactivity
25 | QVQLVESVGGLVKAGGSLRLSCAASGSIFGTNAMGWYRQAPGKERELVAVISDGGSTYYADSVKGRFTISRENAKNTVYLQMNSLKPADTAVYYCNTPLESPFYSRVGTTESDHWGQGTQVTVSS | low polyreactivity
26 | QVQLVESVGGLVLAGARLRLSCAASGRIFRFYAMGWYREAPGKERELVAAISSGGRTYSADSVKGRFTISRDNAKNTVYLQMNSLKPEDTAVYYCNTPYTVRGRYTSDYWGQGTQVTVSS | high polyreactivity
27 | QVQLVESVGGLVPAGGSLRLSCAASGFTYPAYTMGWYRQAPGKERELVAAITSSGGNTYYADSVKGRFTISRDNAKNTVYLQMNSLKPEDTAVYYCYADASSSPYTDRQYIGADDSWGQGTQVTVSS | low polyreactivity
28 | QVQLVESVGGLVQAGGILRLSCAASGSTFLDNAMGLYRQAPGKERELVAAITQSGSSTYYADSVKGRFTISRDNAKNTVYLQMNSLKPEDTAVYYCAADVPIISFDYWGQGTQVTVSS | low polyreactivity
29 | QVQLVESVGGLVQAGGRLRLSCAASGLIFDDYSMGCYRQAPGKEREFVSAISWSDGTTYYADSVKGRFTISRDNAKNTVYLQMNSLKPEDTAVYYCAARLARAGYWRRNYYYWGQGTQVTVSS | high polyreactivity
30 | QVQLVESVGGLVQAGGRLRLSCAASGLTFTHYTMGWYIQAPGKERELVAAISQTGGSTYYADSVKGRFTISRDNEKNTVYLQMNSQKPEDTADYYCSRVFPRPRPGYYNWGQGTQVTVSS | high polyreactivity
31 | QVQLVESVGGLVQAGGSLGLTCAASGFIFRYYAMGWYRQAPGLERELVAPINASGGRTYYADSVKGRFTISRDNARNTLYLQMNSLKPEDTAVYYCAAYRSYQTFDYWGQGTQVTVSS | high polyreactivity
32 | QVQLVESVGGLVQAGGSLLLSCAASGRTFTKYAMGWYRLAPGKEGELVAAISRSGTSTYYADSVKGRFTISRDNEKNTVYLQMNSLKPEDTAVYYCATVSAKYHSVHFGYWGQGTQVTVSS | high polyreactivity
33 | QVQLVESVGGLVQAGGSLRLICAASGRIFVHYAMGWYRQAPGKERELVAAISWNGGRTFYADSVKGRFTISRDNAKNTVYLQMNSLKPEDTAVSYCAARSRYSLDYWGQGTQVTVSS | high polyreactivity
34 | QVQLVESVGGLVQAGGSLRLICAASGSIFIGYAMGWYRQAPGKERELVAAISNSGGRTYYADSVKGRFTISRDYAKNTVYLQMNSLKPDDTAVYYCAARLRYRGRRYDYWGQGTQVTVSS | high polyreactivity
35 | QVQLVESVGGLVQAGGSLRLICAASGSIFSRYAMGWYRQAPGKEREFVARITQRGGSTYYADSVKGRFTISRDNAKNTVYLQRQSLKPEDTAVYYCNADHYRRLLAEDYWGQGTQVTVSS | low polyreactivity
36 | QVQLVESVGGLVQAGGSLRLSCAASGDTFTSYAMGRYRQAPGKVRELVAAISRRGGSTYYAESVKGRFTISRDNAKNTVYLLMNSLKPEDTAFYYCAAKSYSYTEFDYGGQGTQVTVSS | high polyreactivity
37 | QVQLVESVGGLVQAGGSLRLSCAASGFIFGSNAIGWYRQAPGKERELVAAITYSGASTYYADSVKGRFTISRDNAKNTVYLQMNRLKPEDTAVYYCATRYSVFVSGRFNYWGQGTQVTVSS | low polyreactivity
38 | QVQLVESVGGLVQAGGSLRLSCAASGFIFKSYSMGWYRQAPGKERELVAAISGRGGSTYYADSVKGRFTISRDNAKNTVYLQMNSLKPEDTAVYYCNVVPSTYYQYDYWGQGTQVTVSS | high polyreactivity
39 | QVQLVESVGGLVQAGGSLRLSCAASGFIFPYYVMGWYRQAPGKERELVAAITSVGITYYADSVKGRFTISRDNAKNTVYLQMNSLKPEDTAVYYCAADYKYFYDWGSFVEDEYWGQGTQVTVSS | high polyreactivity
40 | QVQLVESVGGLVQAGGSLRLSCAASGFIFRPYAMGWSRQAPGKERELVAAISWSGDRTYYADSVKGRFTISRDNAKNTVYLQMNSLKPEDTAVYYCAAEGVTRDYDYWGQGTQVTVSS | low polyreactivity
41 | QVQLVESVGGLVQAGGSLRLSCAASGFIFSYYAMGRYRQAPGKERELVATINFSGGRTYYADSVKGRFTISRDNAKNTVYLQMNSLKPEDTAVYYCAAVARSRAAPGVGYWGQGTQVTVSS | high polyreactivity
42 | QVQLVESVGGLVQAGGSLRLSCAASGFIFTHYAMGWYRQAPGKERELVAAISSGGSTYYADSVKGRFTISRDNAKNTVYLQMNSLKPEDTAVYYCAAVWPWRYYATGENYWGQGTHVTVSS | high polyreactivity
43 | QVQLVESVGGLVQAGGSLRLSCAASGFISYYYAMGWYRQAPGKEREFVAAITSSGGSTRYADSVKGRFTISRDNAKNPVYLQMNSLKPEDTAVYYCAARKARPPFPHPFDYYWGQGTQVTVSS | low polyreactivity
